These results are taken from patent US20200055939A1 (Genentech, published 2020).

In assay [1] the target is T1, MICA.008.a3.T204-S297.H248N.mIgG2a.Glyco15 (human; mouse, UniProt Q29983 204-297, engineered N-linked glycosylation site H248N).
T1 construct: not shown: murine IgG2a Fc
T1 chain: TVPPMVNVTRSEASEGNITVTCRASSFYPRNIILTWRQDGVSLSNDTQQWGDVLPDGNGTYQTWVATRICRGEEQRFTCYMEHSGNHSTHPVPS
As to the kind of experiment: ELISA, coated variant.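 Further: ELISA with plates coated at 2 ug/ml with MICA*008 alpha 3 glycosylation variants as murine IgG2a Fc fusions, antibody binding detected by HRP anti-human IgG Fc and TMB absorbance.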

For assay [2], the target named is T2, MICA.008.a3.T204-S297.I236T.mIgG2a.Glyco13 (human; mouse, UniProt Q29983 204-297, engineered N-linked glycosylation site created by I236T).
T2 construct: not shown: murine IgG2a Fc
T2 chain: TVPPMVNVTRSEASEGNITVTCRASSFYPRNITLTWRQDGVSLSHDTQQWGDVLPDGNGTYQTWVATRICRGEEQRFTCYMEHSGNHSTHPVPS
As to the kind of experiment: ELISA, coated variant.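 Further: ELISA with plates coated at 2 ug/ml with MICA*008 alpha 3 glycosylation variants as murine IgG2a Fc fusions, antibody binding detected by HRP anti-human IgG Fc and TMB absorbance.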 Background: ELISA stands for enzyme-linked immunosorbent assay.

For assay [3], the target named is T3, MICA.008.a3.T204-S297.E215N.mIgG2a.Glyco12 (human; mouse, UniProt Q29983 204-297, engineered N-linked glycosylation site E215N).
T3 construct: not shown: murine IgG2a Fc
T3 chain: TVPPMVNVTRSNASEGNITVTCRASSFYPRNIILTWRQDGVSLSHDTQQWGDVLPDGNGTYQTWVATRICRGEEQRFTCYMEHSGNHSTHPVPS
The assay is described as follows: ELISA, coated variant.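 Further: ELISA with plates coated at 2 ug/ml with MICA*008 alpha 3 glycosylation variants as murine IgG2a Fc fusions, antibody binding detected by HRP anti-human IgG Fc and TMB absorbance.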

Assay [4] concerns the target T4, MICA.008.a3.T204-S297.R279N.mIgG2a.Glyco16 (human; mouse, UniProt Q29983 204-297, engineered N-linked glycosylation site R279N).
T4 construct: not shown: murine IgG2a Fc
T4 chain: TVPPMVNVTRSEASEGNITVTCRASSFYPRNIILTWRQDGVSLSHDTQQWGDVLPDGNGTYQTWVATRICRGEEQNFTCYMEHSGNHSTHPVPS
The assay is described as follows: ELISA, coated variant.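 Further: ELISA with plates coated at 2 ug/ml with MICA*008 alpha 3 glycosylation variants as murine IgG2a Fc fusions, antibody binding detected by HRP anti-human IgG Fc and TMB absorbance.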

In assay [5] the target is T5, MICA.008.a3.R202-S297.R202N mIgG2a.Glyco11 (human; mouse, UniProt Q29983 203-297, engineered N-linked glycosylation site R202N).
T5 construct: not shown: murine IgG2a Fc
T5 chain: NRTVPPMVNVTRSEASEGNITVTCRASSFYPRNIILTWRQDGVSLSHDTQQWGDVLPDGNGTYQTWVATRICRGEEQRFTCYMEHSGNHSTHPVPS
The assay is described as follows: ELISA, coated variant.

For assay [6], the target named is T6, MICA.008.a3.T204-S297.C-terminal insert of N298.G299.S300.mIgG2a.Glyco17 (human; mouse, UniProt Q29983 204-297, engineered N-linked glycosylation site at inserted N298).
T6 construct: not shown: murine IgG2a Fc
T6 chain: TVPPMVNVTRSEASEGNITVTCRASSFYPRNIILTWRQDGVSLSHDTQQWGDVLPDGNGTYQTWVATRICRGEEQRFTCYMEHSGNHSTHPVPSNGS
As to the kind of experiment: ELISA, coated variant.

The target of assay [7] is T7, MICA008.His (human MICA*008 alpha 3 domain, His tagged) (human).
T7 construct: Also used for FPOP (expressed in CHO); also called huMICA*008 alpha 3-his; MICA*008 a3
T7 chain: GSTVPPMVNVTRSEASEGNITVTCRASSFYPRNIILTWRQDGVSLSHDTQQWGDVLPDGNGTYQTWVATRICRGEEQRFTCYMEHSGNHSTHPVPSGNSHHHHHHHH
The assay is described as follows: SPR (Biacore), MICA*008 alpha-3 domain.

The target of assay [8] is MICA*004 on HCC1534 cells (human, UniProt Q29983 24-383). The assay is described as follows: cell-based or functional assay.
The target of assay [9] is T8, MICA*008 on MEL-JUSO cells (human, UniProt Q29983 24-317).
T8 chain: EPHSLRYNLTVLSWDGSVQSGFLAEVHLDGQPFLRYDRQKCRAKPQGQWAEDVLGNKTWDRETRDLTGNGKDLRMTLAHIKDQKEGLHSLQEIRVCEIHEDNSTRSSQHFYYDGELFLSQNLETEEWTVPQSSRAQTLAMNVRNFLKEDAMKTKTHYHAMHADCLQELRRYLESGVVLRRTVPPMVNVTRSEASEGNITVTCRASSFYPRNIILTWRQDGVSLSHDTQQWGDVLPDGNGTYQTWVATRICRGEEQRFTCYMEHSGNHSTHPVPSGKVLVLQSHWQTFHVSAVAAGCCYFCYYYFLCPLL
As to the kind of experiment: cell-based or functional assay.

Assay [10] has as its target T9, MICB*005 on HCC1534 cells (human, UniProt Q29980 23-383).
T9 sequence (looked up): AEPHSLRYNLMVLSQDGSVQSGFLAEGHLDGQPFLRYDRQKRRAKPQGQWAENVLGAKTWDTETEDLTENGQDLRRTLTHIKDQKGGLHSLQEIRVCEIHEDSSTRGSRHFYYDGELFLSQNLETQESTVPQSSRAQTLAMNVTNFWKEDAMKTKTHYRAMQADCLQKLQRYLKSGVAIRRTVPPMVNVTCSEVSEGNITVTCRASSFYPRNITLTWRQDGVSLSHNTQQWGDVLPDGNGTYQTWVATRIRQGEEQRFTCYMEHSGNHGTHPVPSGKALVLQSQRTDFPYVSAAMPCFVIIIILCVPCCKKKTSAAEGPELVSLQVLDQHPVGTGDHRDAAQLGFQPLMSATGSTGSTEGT
The assay is described as follows: cell-based or functional assay.

Assay [11] deals with T10, MICA002.His (human MICA*002 alpha 3 domain, His tagged) (human).
T10 construct: also called huMICA*002 alpha 3-his
T10 chain: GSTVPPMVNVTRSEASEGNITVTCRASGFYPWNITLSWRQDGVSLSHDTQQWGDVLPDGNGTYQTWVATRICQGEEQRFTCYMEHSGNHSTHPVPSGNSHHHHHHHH
As to the kind of experiment: SPR, antibody captured.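 Further: SPR with antibody held by surface-bound anti-Fc while His-tagged alpha three domains flow over, Kd derived by fitting a one-to-one binding model to sensograms.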

The target in assay [12] is T11, MICB005.His (human MICB*005 alpha 3 domain, His tagged) (human).
T11 construct: also called huMICB*005 alpha 3-his
T11 chain: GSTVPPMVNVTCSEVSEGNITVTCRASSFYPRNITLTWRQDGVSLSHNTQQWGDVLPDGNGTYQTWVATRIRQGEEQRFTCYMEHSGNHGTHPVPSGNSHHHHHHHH
As to the kind of experiment: SPR, antibody captured.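 Further: SPR with antibody held by surface-bound anti-Fc while His-tagged alpha three domains flow over, Kd derived by fitting a one-to-one binding model to sensograms.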

The target in assay [13] is T12, MICA004.His (human MICA*004 alpha 3 domain, His tagged) (human).
T12 construct: also called huMICA*004 alpha 3-his
T12 chain: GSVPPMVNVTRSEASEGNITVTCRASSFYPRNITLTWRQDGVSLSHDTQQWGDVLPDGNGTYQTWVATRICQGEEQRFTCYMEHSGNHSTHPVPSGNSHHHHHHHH
As to the kind of experiment: SPR, antibody captured.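 Further: SPR with antibody held by surface-bound anti-Fc while His-tagged alpha three domains flow over, Kd derived by fitting a one-to-one binding model to sensograms.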 In general terms: In SPR one partner is held on a chip, and binding of the other changes the refractive index at the surface.

Assay [14] deals with T7, MICA008.His (human MICA*008 alpha 3 …). As to the kind of experiment: SPR, antibody captured.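 Further: SPR with antibody held by surface-bound anti-Fc while His-tagged alpha three domains flow over, Kd derived by fitting a one-to-one binding model to sensograms.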
Assay [15] has as its target T13, MICA.008.a3.T204-S297.G243N.mIgG2a.Glyco14 (human; mouse, UniProt Q29983 204-297, engineered N-linked glycosylation site G243N).
T13 construct: not shown: murine IgG2a Fc
T13 chain: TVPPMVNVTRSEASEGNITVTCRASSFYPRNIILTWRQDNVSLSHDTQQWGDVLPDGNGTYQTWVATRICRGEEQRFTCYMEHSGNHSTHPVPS
The assay is described as follows: ELISA, coated variant.

B1: 18G3 (antibody, V domains shown)
VH: VQLQESGPGLVKPSQSLSLTCNVTGYSITGDYAWNWIRQFPGNKLEWIGYIGYTGSTTYNPSLKSRVSITRDTSKNQFFLQLNSVTPEDTATYYCARWRNWAMDYWGLGTSVTVSS
VL: DIQMTQTPSSLSASLGDRVTISCRANQDISHYLNWYQQKPDGAVKLLIYYTSRIHSGVPSRFSGSGSGTDYSLTIANLEQEDVATYFCQQGNTPPTTFGGGTKVEIK
notes: Mouse variable domains; constant regions differ by assay
Usually Kd stands for the constant that tells how readily two partners part at equilibrium. A higher Kd goes with lower affinity. As for B1, the binding result in assay [1], in [2], in assay [3], in assay [4], in assay [5] and in assay [6] was “binds” each time. Also, the Kd was found to be 2.6 nM in assay [7]; 10.4 nM in assay [11]; 6.18 nM in [12]; 4.03 nM in [13]; 2.03 nM in [14]. For the same molecule, the figures for the “% max inhibition of shedding” value in [8], in assay [9] and in assay [10] were 74%, 75% and 48%, respectively. Besides, the “EC50 of shedding inhibition” value turned out to be 0.012 µg/mL in assay [8], 0.0191 µg/mL in assay [9] and 0.0124 µg/mL in assay [10].

B2: 32D2 (antibody, V domains shown)
VH: DVHLVESGGGLVQPGGSRKLSCAASGFTFNTFGMNWVRQAPEKGLEWVAYINSGSNTIYYADTVKGRFTISRDNPKNTLFLQMTSLRSEDTAMYYCTRWEPVTGGFSYWGQGTLVTVSA
VL: QIVLTQSPAFKSSSLGERVTMTCTASSSISSSYLHWYQQKPGSSPKLWIYTTSNLASGVPARFSGSGSGTSYSLTISTMEAEDAATYYCHQHHRSPFTFGSGTKVEIK
notes: Mouse hybridoma antibody; constant regions differ by assay
As to B2, the binding result in [1], in [2], in assay [3], in [5] and in [6] was “binds” in each case. In addition, the Kd in [7] stood at 4 nM; in assay [11] it was 3.18 nM; in assay [12], 2.82 nM; in assay [13] it was 2.85 nM; in assay [14] it was 1.94 nM. Further, the figures for the “% max inhibition of shedding” value in assay [8], in assay [9] and in assay [10] were 76%, 71% and 54%, respectively. The “EC50 of shedding inhibition” value stood at 0.0592 µg/mL in assay [8], 0.0303 µg/mL in assay [9] and 0.0781 µg/mL in assay [10].

B3: 20G11 (antibody, V domains shown)
VH: DVQLVESGGGLVQPGGSRKLSCAASGFTFSTFGIHWVRQAPEKGLEWVAYISYDSRTIYYADTVKGRFTISRDNPKNTLFLQMTSLRSEDTAMYYCARWAYEGGVNYFDNWGQGTTLTVSS
VL: QIVLTQSPAIMSASLGERVTMTCTATSGVSSSYLHWYQQKPGSSPKLWIYSSSNLASGVPARFSGSGSGTSYSLTIGSMEAEDAATYYCHQFHRSPLTFGTGTKVEIK
notes: as for B2
Regarding B3, the binding result in assay [1], in assay [15], in assay [2], in assay [3], in [5] and in assay [6] was “binds” each time. The dissociation constant (Kd) in [7] was determined as 3.8 nM; in [11], 1.76 nM; in [12], 1.05 nM; in assay [13], 1.06 nM; in assay [14] it was 0.77 nM. In addition, the “% max inhibition of shedding” value in [8] stood at 69%; in [9], 70%; in assay [10], 51%. Moreover, the “EC50 of shedding inhibition” value in [8] was 0.123 µg/mL; in assay [9], 0.0285 µg/mL; in assay [10], 0.0169 µg/mL.

B4: 12H10 (antibody, V domains shown)
VH: DVQLQESGPGLVKPSQPLSLTCTVTGYSITSNYAWNWIRQFPGDKLEWMGYISSSGITKSNPSLKSRISITRDTSKNQFFLQLNSLTTEDTATYYCSRWSNWSFDVWGAGTTVTVSS
VL: DIQMTQTPSSLSVSLGDRVTINCRASQDIHNYFNWYQQKPDGTIKLLIYYTSRFHSGVPSRFSGSGSGTDYSLTISNLEEEDIATYFCQQGNSLPPTFGGGTKLEIK
notes: as for B1
Consider B4, for which the binding result in assay [1], in assay [2], in assay [3], in [4], in assay [5] and in [6] was “binds” throughout. Moreover, the Kd in assay [7] was determined as 1.9 nM; in [11], 25.8 nM; in assay [12], 10.7 nM; in assay [13] it was 7.02 nM; in [14] it was 1.48 nM. Besides, the “% max inhibition of shedding” value is 76% in [8], 81% in [9] and 54% in [10]. The results for the “EC50 of shedding inhibition” value in assay [8], in [9] and in [10] were 0.0689 µg/mL, 0.0103 µg/mL and 0.139 µg/mL, respectively.
